Results: US6468985B1, “Retinoblastoma protein-interacting zinc finger proteins” (The Burnham Institute, priority 1994, dated 2002)

Columns and labels:
wild-type Rb = target: T1, wild-type Rb (Homo sapiens, UniProt P06400); test: binding of GST-RIZ (245-573) to 35S-labeled Rb, immunoprecipitation with anti-RIZ antiserum
T1 construct: Wild-type (wt) full length Rb (A9); made in house; host or cells: in vitro transcription/translation
T1 sequence (P06400 1-928): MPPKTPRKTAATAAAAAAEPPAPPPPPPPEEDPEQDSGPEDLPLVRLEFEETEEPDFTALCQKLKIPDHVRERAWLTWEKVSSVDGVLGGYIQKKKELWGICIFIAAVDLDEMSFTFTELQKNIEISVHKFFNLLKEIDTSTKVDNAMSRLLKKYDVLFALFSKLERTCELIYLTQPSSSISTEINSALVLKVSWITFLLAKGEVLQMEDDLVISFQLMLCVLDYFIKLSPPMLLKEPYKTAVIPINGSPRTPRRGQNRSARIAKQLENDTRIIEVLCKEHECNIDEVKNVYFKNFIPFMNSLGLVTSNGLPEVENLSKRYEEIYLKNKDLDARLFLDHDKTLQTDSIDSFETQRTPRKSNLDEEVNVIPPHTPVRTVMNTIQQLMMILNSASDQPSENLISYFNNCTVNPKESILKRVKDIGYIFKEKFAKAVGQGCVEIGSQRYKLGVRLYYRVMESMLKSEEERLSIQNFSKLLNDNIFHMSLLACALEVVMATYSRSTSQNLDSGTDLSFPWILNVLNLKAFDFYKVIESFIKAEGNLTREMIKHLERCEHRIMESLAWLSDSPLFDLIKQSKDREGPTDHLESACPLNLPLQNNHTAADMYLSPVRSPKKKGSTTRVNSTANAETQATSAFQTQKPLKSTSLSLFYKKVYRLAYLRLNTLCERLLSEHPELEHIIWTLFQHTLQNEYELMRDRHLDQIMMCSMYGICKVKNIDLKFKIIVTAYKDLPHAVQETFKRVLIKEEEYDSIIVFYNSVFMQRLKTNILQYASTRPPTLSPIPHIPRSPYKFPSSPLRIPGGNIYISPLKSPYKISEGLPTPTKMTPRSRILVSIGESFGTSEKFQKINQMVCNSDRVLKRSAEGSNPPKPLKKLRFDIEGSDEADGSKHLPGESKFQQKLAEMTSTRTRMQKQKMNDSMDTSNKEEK
Experimental: (§1) The 56 kD Rb fragment that binds to RIZ is a C-terminal fragment containing the Rb pocket binding region and a C-terminal extension. To further define the portion of 56 kD Rb that binds to RIZ, several Rb mutant polypeptides were tested for binding to RIZ. Mutant and full length Rb were cloned and in vitro transcribed/translated as described previously (Huang et al., supra, 1990). H209 is a point mutation resulting in a single amino acid change in Rb that was identified in the small cell lung cancer H209 cell line (American Type Culture Collection (ATCC) #HTB 172). The various Rb forms were tested for binding to glutathionine S-transferase (GST) fused to a fragment of RIZ from amino acid position 245-573 (GST-RIZ (245-573)). This RIZ fragment contains all of the E1A motifs related to binding Rb and was constructed by cloning a Stu I-Hpa I RIZ fragment (nucleotide 795-3068) into vector pBSK+ to make pBSK+SH. An Eco RI fragment was removed from pBSK+SH and ligated into pGEX-KG to produce vector pKG7.1S containing GST-RIZ (245-573).
(§2) The binding between purified GST-RIZ (245-573) and the above radiolabeled Rb wild-type and deletion mutants was determined by immunoprecipitation with an anti-RIZ antiserum followed by SDS-PAGE and autoradiography. […]

B3 mutant of Rb = target: T2, B3 mutant of Rb (Homo sapiens, UniProt P06400); test: binding of GST-RIZ (245-573) to 35S-labeled Rb mutant, immunoprecipitation with anti-RIZ antiserum; conditions: deletion C-terminal to the Rb binding pocket
T2 construct: made in house; host or cells: in vitro transcription/translation
T2 sequence (P06400 1-803): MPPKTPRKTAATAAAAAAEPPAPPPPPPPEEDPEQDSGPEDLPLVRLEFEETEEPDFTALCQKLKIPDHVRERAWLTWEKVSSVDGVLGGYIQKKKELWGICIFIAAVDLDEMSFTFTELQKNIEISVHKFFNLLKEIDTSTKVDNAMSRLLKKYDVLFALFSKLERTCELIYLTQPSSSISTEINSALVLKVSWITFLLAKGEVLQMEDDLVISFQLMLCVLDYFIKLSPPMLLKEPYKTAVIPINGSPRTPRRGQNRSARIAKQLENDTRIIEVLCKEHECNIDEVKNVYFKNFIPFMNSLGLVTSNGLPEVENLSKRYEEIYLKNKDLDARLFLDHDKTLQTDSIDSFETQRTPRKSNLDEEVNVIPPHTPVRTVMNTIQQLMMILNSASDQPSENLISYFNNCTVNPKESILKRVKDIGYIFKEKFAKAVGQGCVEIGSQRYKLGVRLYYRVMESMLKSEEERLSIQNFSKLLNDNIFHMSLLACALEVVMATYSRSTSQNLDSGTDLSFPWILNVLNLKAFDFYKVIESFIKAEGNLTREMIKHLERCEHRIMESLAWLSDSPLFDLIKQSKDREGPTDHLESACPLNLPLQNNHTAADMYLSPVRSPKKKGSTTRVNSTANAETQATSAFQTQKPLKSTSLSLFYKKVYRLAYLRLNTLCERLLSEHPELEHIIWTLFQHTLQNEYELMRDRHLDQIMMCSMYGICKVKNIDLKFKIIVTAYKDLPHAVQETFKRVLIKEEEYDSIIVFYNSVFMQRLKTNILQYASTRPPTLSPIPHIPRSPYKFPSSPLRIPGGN
Experimental: as §1, §2

B1: GST-RIZ (245-573): glutathionine S-transferase fused to RIZ fragment a.a. 245-573 containing zinc fingers 1-3 (protein)
chain: CEPQPEVDGKQEVTDCEVNDVEEEELEEEEELEEEEEEELGEDGVEEADMPNESSAKEPEIRCEEKPEDLLEEPQSMSNEAREDSPDVTPPPHTPRAREEANGDVLETFMFPCQHCERKFATKQGLERHMHIHISTINHAFKCKYCGKRFGTQINRRRHERRHETGLKRRPSMTLQSSEDPDDGKGENVTSKDESSPPQLGQDCLILNSEKTSQEVLNSSFVEENGEVKELHPCKYCKKVFGTHTNMRRHQRRVHERHLIPKGVRRKGGLLEEPQPPAEQAPPSQNVYVPSTEPEEEGETDDVYIMDISSNISENLNYYIDGKIQTNSS
modifications: left off: a dimerising Fc or GST
binding to wild-type Rb (wild-type Rb): showed binding | binding to B3 mutant of Rb (B3 mutant of Rb): showed binding
